From patent US20110020218A1

Molecular target: constitutively active mutant (CAM) Asn119Ser CXCR4 receptor (human) (UniProt P61073)
Assay: cell-based or functional assay

Chain of constitutively active mutant (CAM) Asn119Ser CXCR4 receptor (human) (P61073 whole entry N119S): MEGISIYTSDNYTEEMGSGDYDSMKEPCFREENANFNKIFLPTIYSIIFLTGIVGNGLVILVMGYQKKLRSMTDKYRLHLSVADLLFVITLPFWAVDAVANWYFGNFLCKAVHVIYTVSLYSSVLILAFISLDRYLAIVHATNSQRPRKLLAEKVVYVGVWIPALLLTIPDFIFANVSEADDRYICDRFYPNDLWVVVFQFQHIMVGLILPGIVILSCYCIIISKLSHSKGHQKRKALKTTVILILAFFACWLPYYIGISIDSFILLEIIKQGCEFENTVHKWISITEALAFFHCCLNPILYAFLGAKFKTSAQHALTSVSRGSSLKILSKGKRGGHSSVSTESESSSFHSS

inhibition of SDF-1-stimulated [35S]GTPγS binding: -159%
inhibition of basal [35S]GTPγS binding: -17%
Substance: T140 (peptide)
